Laboratory results published in patent US9657062B2, “Ghrelin analogues” (Zealand Pharma A/S, priority 2012, dated 2017).
The star is where a group is joined. Octanoyl = CCCCCCCC(=O)*; Octyl = CCCCCCCC*

B1: H-PS-S(octanoyl)-FLSPEHQRVQQRKESKKPPASLQPR-NH2 (peptide)
peptide: H-PSS(Octanoyl)FLSPEHQRVQQRKESKKPPASLQPR-NH2
SMILES: CCCCCCCC(=O)OC[C@H](NC(=O)[C@H](CO)NC(=O)[C@@H]1CCCN1)C(=O)N[C@@H](Cc1ccccc1)C(=O)N[C@@H](CC(C)C)C(=O)N[C@@H](CO)C(=O)N1CCC[C@H]1C(=O)N[C@@H](CCC(=O)O)C(=O)N[C@@H](Cc1c[nH]cn1)C(=O)N[C@@H](CCC(N)=O)C(=O)N[C@@H](CCCNC(=N)N)C(=O)N[C@H](C(=O)N[C@@H](CCC(N)=O)C(=O)N[C@@H](CCC(N)=O)C(=O)N[C@@H](CCCNC(=N)N)C(=O)N[C@@H](CCCCN)C(=O)N[C@@H](CCC(=O)O)C(=O)N[C@@H](CO)C(=O)N[C@@H](CCCCN)C(=O)N[C@@H](CCCCN)C(=O)N1CCC[C@H]1C(=O)N1CCC[C@H]1C(=O)N[C@@H](C)C(=O)N[C@@H](CO)C(=O)N[C@@H](CC(C)C)C(=O)N[C@@H](CCC(N)=O)C(=O)N1CCC[C@H]1C(=O)N[C@@H](CCCNC(=N)N)C(N)=O)C(C)C
B2: H-PS-S(octanoyl)-FLSPYHQRVQQRKESKKPPAKLQPR-NH2 (peptide)
peptide: H-PSS(Octanoyl)FLSPYHQRVQQRKESKKPPAKLQPR-NH2
SMILES: CCCCCCCC(=O)OC[C@H](NC(=O)[C@H](CO)NC(=O)[C@@H]1CCCN1)C(=O)N[C@@H](Cc1ccccc1)C(=O)N[C@@H](CC(C)C)C(=O)N[C@@H](CO)C(=O)N1CCC[C@H]1C(=O)N[C@@H](Cc1ccc(O)cc1)C(=O)N[C@@H](Cc1c[nH]cn1)C(=O)N[C@@H](CCC(N)=O)C(=O)N[C@@H](CCCNC(=N)N)C(=O)N[C@H](C(=O)N[C@@H](CCC(N)=O)C(=O)N[C@@H](CCC(N)=O)C(=O)N[C@@H](CCCNC(=N)N)C(=O)N[C@@H](CCCCN)C(=O)N[C@@H](CCC(=O)O)C(=O)N[C@@H](CO)C(=O)N[C@@H](CCCCN)C(=O)N[C@@H](CCCCN)C(=O)N1CCC[C@H]1C(=O)N1CCC[C@H]1C(=O)N[C@@H](C)C(=O)N[C@@H](CCCCN)C(=O)N[C@@H](CC(C)C)C(=O)N[C@@H](CCC(N)=O)C(=O)N1CCC[C@H]1C(=O)N[C@@H](CCCNC(=N)N)C(N)=O)C(C)C
B3: H-PS-S(octanoyl)-FLSPYHQRVQYRKESKKPPAYLQPR-NH2 (peptide)
peptide: H-PSS(Octanoyl)FLSPYHQRVQYRKESKKPPAYLQPR-NH2
SMILES: CCCCCCCC(=O)OC[C@H](NC(=O)[C@H](CO)NC(=O)[C@@H]1CCCN1)C(=O)N[C@@H](Cc1ccccc1)C(=O)N[C@@H](CC(C)C)C(=O)N[C@@H](CO)C(=O)N1CCC[C@H]1C(=O)N[C@@H](Cc1ccc(O)cc1)C(=O)N[C@@H](Cc1c[nH]cn1)C(=O)N[C@@H](CCC(N)=O)C(=O)N[C@@H](CCCNC(=N)N)C(=O)N[C@H](C(=O)N[C@@H](CCC(N)=O)C(=O)N[C@@H](Cc1ccc(O)cc1)C(=O)N[C@@H](CCCNC(=N)N)C(=O)N[C@@H](CCCCN)C(=O)N[C@@H](CCC(=O)O)C(=O)N[C@@H](CO)C(=O)N[C@@H](CCCCN)C(=O)N[C@@H](CCCCN)C(=O)N1CCC[C@H]1C(=O)N1CCC[C@H]1C(=O)N[C@@H](C)C(=O)N[C@@H](Cc1ccc(O)cc1)C(=O)N[C@@H](CC(C)C)C(=O)N[C@@H](CCC(N)=O)C(=O)N1CCC[C@H]1C(=O)N[C@@H](CCCNC(=N)N)C(N)=O)C(C)C
B4: H-PS-S(octanoyl)-FLSPEHQRVQQRKESKKPPAKLQPS-NH2 (peptide)
peptide: H-PSS(Octanoyl)FLSPEHQRVQQRKESKKPPAKLQPS-NH2
SMILES: CCCCCCCC(=O)OC[C@H](NC(=O)[C@H](CO)NC(=O)[C@@H]1CCCN1)C(=O)N[C@@H](Cc1ccccc1)C(=O)N[C@@H](CC(C)C)C(=O)N[C@@H](CO)C(=O)N1CCC[C@H]1C(=O)N[C@@H](CCC(=O)O)C(=O)N[C@@H](Cc1c[nH]cn1)C(=O)N[C@@H](CCC(N)=O)C(=O)N[C@@H](CCCNC(=N)N)C(=O)N[C@H](C(=O)N[C@@H](CCC(N)=O)C(=O)N[C@@H](CCC(N)=O)C(=O)N[C@@H](CCCNC(=N)N)C(=O)N[C@@H](CCCCN)C(=O)N[C@@H](CCC(=O)O)C(=O)N[C@@H](CO)C(=O)N[C@@H](CCCCN)C(=O)N[C@@H](CCCCN)C(=O)N1CCC[C@H]1C(=O)N1CCC[C@H]1C(=O)N[C@@H](C)C(=O)N[C@@H](CCCCN)C(=O)N[C@@H](CC(C)C)C(=O)N[C@@H](CCC(N)=O)C(=O)N1CCC[C@H]1C(=O)N[C@@H](CO)C(N)=O)C(C)C
B5: H-PS-S(O-octyl)-FLSPEHQRVQRKESKKPPAKLQPR-NH2 (peptide)
peptide: H-PSS(Octyl)FLSPEHQRVQRKESKKPPAKLQPR-NH2
SMILES: CCCCCCCCOC[C@H](NC(=O)[C@H](CO)NC(=O)[C@@H]1CCCN1)C(=O)N[C@@H](Cc1ccccc1)C(=O)N[C@@H](CC(C)C)C(=O)N[C@@H](CO)C(=O)N1CCC[C@H]1C(=O)N[C@@H](CCC(=O)O)C(=O)N[C@@H](Cc1c[nH]cn1)C(=O)N[C@@H](CCC(N)=O)C(=O)N[C@@H](CCCNC(=N)N)C(=O)N[C@H](C(=O)N[C@@H](CCC(N)=O)C(=O)N[C@@H](CCCNC(=N)N)C(=O)N[C@@H](CCCCN)C(=O)N[C@@H](CCC(=O)O)C(=O)N[C@@H](CO)C(=O)N[C@@H](CCCCN)C(=O)N[C@@H](CCCCN)C(=O)N1CCC[C@H]1C(=O)N1CCC[C@H]1C(=O)N[C@@H](C)C(=O)N[C@@H](CCCCN)C(=O)N[C@@H](CC(C)C)C(=O)N[C@@H](CCC(N)=O)C(=O)N1CCC[C@H]1C(=O)N[C@@H](CCCNC(=N)N)C(N)=O)C(C)C
B6: H-PS-S(octanoyl)-FLSPEHQRVQQRKESKSPPAKLQPR-NH2 (peptide)
peptide: H-PSS(Octanoyl)FLSPEHQRVQQRKESKSPPAKLQPR-NH2
SMILES: CCCCCCCC(=O)OC[C@H](NC(=O)[C@H](CO)NC(=O)[C@@H]1CCCN1)C(=O)N[C@@H](Cc1ccccc1)C(=O)N[C@@H](CC(C)C)C(=O)N[C@@H](CO)C(=O)N1CCC[C@H]1C(=O)N[C@@H](CCC(=O)O)C(=O)N[C@@H](Cc1c[nH]cn1)C(=O)N[C@@H](CCC(N)=O)C(=O)N[C@@H](CCCNC(=N)N)C(=O)N[C@H](C(=O)N[C@@H](CCC(N)=O)C(=O)N[C@@H](CCC(N)=O)C(=O)N[C@@H](CCCNC(=N)N)C(=O)N[C@@H](CCCCN)C(=O)N[C@@H](CCC(=O)O)C(=O)N[C@@H](CO)C(=O)N[C@@H](CCCCN)C(=O)N[C@@H](CO)C(=O)N1CCC[C@H]1C(=O)N1CCC[C@H]1C(=O)N[C@@H](C)C(=O)N[C@@H](CCCCN)C(=O)N[C@@H](CC(C)C)C(=O)N[C@@H](CCC(N)=O)C(=O)N1CCC[C@H]1C(=O)N[C@@H](CCCNC(=N)N)C(N)=O)C(C)C
B7: H-PS-S(octanoyl)-FLSPEHQRVQQRKESKKPPAYLQPR-NH2 (peptide)
peptide: H-PSS(Octanoyl)FLSPEHQRVQQRKESKKPPAYLQPR-NH2
SMILES: CCCCCCCC(=O)OC[C@H](NC(=O)[C@H](CO)NC(=O)[C@@H]1CCCN1)C(=O)N[C@@H](Cc1ccccc1)C(=O)N[C@@H](CC(C)C)C(=O)N[C@@H](CO)C(=O)N1CCC[C@H]1C(=O)N[C@@H](CCC(=O)O)C(=O)N[C@@H](Cc1c[nH]cn1)C(=O)N[C@@H](CCC(N)=O)C(=O)N[C@@H](CCCNC(=N)N)C(=O)N[C@H](C(=O)N[C@@H](CCC(N)=O)C(=O)N[C@@H](CCC(N)=O)C(=O)N[C@@H](CCCNC(=N)N)C(=O)N[C@@H](CCCCN)C(=O)N[C@@H](CCC(=O)O)C(=O)N[C@@H](CO)C(=O)N[C@@H](CCCCN)C(=O)N[C@@H](CCCCN)C(=O)N1CCC[C@H]1C(=O)N1CCC[C@H]1C(=O)N[C@@H](C)C(=O)N[C@@H](Cc1ccc(O)cc1)C(=O)N[C@@H](CC(C)C)C(=O)N[C@@H](CCC(N)=O)C(=O)N1CCC[C@H]1C(=O)N[C@@H](CCCNC(=N)N)C(N)=O)C(C)C
B8: H-PS-S(octanoyl)-FLSPEHQRVQQRKESSKPPAKLQPR-NH2 (peptide)
peptide: H-PSS(Octanoyl)FLSPEHQRVQQRKESSKPPAKLQPR-NH2
SMILES: CCCCCCCC(=O)OC[C@H](NC(=O)[C@H](CO)NC(=O)[C@@H]1CCCN1)C(=O)N[C@@H](Cc1ccccc1)C(=O)N[C@@H](CC(C)C)C(=O)N[C@@H](CO)C(=O)N1CCC[C@H]1C(=O)N[C@@H](CCC(=O)O)C(=O)N[C@@H](Cc1c[nH]cn1)C(=O)N[C@@H](CCC(N)=O)C(=O)N[C@@H](CCCNC(=N)N)C(=O)N[C@H](C(=O)N[C@@H](CCC(N)=O)C(=O)N[C@@H](CCC(N)=O)C(=O)N[C@@H](CCCNC(=N)N)C(=O)N[C@@H](CCCCN)C(=O)N[C@@H](CCC(=O)O)C(=O)N[C@@H](CO)C(=O)N[C@@H](CO)C(=O)N[C@@H](CCCCN)C(=O)N1CCC[C@H]1C(=O)N1CCC[C@H]1C(=O)N[C@@H](C)C(=O)N[C@@H](CCCCN)C(=O)N[C@@H](CC(C)C)C(=O)N[C@@H](CCC(N)=O)C(=O)N1CCC[C@H]1C(=O)N[C@@H](CCCNC(=N)N)C(N)=O)C(C)C
B9: H-PS-S(octanoyl)-FLSPEHQRVQYRKESKKPPAKLQPR-NH2 (peptide)
peptide: H-PSS(Octanoyl)FLSPEHQRVQYRKESKKPPAKLQPR-NH2
SMILES: CCCCCCCC(=O)OC[C@H](NC(=O)[C@H](CO)NC(=O)[C@@H]1CCCN1)C(=O)N[C@@H](Cc1ccccc1)C(=O)N[C@@H](CC(C)C)C(=O)N[C@@H](CO)C(=O)N1CCC[C@H]1C(=O)N[C@@H](CCC(=O)O)C(=O)N[C@@H](Cc1c[nH]cn1)C(=O)N[C@@H](CCC(N)=O)C(=O)N[C@@H](CCCNC(=N)N)C(=O)N[C@H](C(=O)N[C@@H](CCC(N)=O)C(=O)N[C@@H](Cc1ccc(O)cc1)C(=O)N[C@@H](CCCNC(=N)N)C(=O)N[C@@H](CCCCN)C(=O)N[C@@H](CCC(=O)O)C(=O)N[C@@H](CO)C(=O)N[C@@H](CCCCN)C(=O)N[C@@H](CCCCN)C(=O)N1CCC[C@H]1C(=O)N1CCC[C@H]1C(=O)N[C@@H](C)C(=O)N[C@@H](CCCCN)C(=O)N[C@@H](CC(C)C)C(=O)N[C@@H](CCC(N)=O)C(=O)N1CCC[C@H]1C(=O)N[C@@H](CCCNC(=N)N)C(N)=O)C(C)C

The binders below were run against human growth hormone secretagogue receptor type 1a (human, UniProt Q92847 1-366) (assay: cell-based or functional assay).
Chain of human growth hormone secretagogue receptor type 1a (Q92847 whole entry): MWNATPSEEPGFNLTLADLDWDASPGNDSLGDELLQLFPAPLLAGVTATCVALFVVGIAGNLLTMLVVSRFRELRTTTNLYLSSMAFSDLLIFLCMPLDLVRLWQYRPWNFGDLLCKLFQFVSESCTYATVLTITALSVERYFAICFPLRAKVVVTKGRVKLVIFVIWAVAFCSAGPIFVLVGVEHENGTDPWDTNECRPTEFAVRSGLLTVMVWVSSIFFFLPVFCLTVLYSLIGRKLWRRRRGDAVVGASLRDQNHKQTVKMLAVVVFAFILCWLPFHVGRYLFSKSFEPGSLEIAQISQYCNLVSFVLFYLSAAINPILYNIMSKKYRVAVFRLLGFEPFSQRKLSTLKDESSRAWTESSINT

Row | EC50 (nM); Ca2+ induction in HEK293 cells stably expressing the human ghrelin receptor | Binder
1 | 0.183 nM | B1
2 | 0.719 nM | B2
3 | 0.786 nM | XSSFLSPEHQRVQQRKESKKPPAKLQPR (DPro at position 1; Ser(O-octanoyl) at position 3; C-terminal -OH) [H-[DPro]-S-S(O-octanoyl)-FLSPEHQRVQQRKESKKPPAKLQPR-OH]
4 | 0.594 nM | B3
5 | 0.039 nM | B4
6 | 0.33 nM | B5
7 | 0.396 nM | H-PSS(Octyl)FLSPEHQRVQQRKESKKPPAKLQPR-NH2 [H-PS-S(O-octyl)-FLSPEHQRVQQRKESKKPPAKLQPR-NH2]
8 | 0.086 nM | B6
9 | 0.252 nM | B7
10 | 0.095 nM | B8
11 | 0.198 nM | B9
